T1: MBP-NobZIP77 (Nannochloropsis oceanica, UniProt A0A8F2IEU3 1-466)
T1 sequence: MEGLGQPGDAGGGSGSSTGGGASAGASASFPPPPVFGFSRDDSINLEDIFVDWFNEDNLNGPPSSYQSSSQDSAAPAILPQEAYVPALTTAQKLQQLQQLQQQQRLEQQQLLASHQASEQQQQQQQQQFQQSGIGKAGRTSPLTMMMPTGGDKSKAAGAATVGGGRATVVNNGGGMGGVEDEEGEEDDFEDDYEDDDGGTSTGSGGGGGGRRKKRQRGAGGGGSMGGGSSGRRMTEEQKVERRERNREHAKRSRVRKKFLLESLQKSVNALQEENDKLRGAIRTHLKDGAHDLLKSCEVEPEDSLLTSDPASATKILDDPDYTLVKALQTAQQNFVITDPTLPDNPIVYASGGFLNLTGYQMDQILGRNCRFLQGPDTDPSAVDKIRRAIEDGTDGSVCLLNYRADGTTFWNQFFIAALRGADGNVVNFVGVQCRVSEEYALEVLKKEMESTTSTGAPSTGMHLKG


molecular target: T1, MBP-NobZIP77; assay: EMSA; LightShift Chemiluminescent EMSA kit binding buffer (composition, salt and pH not stated), 30 min; light series: 5 nM probe, 25 °C, 60 min, NobZIP77 1:2 dilutions from 24 mM (so in the source); 6% native PAGE at 4 °C; conditions: protein: recombinant; tags: MBP (pMAL-p4X); chain copies: 2; label: 5' biotin; blunt

Row | Binder | binding result
1 | g4867 (hsp70) control probe (dsDNA) DNA 1: TGTGGGGCCTCAGATAAAGGTGCGGCACGTAGGGAGAGACATTG DNA 2: CAATGTCTCTCCCTACGTGCCGCACCTTTATCTGAGGCCCCACA | no binding
2 | g2171 (PAP) promoter probe (dsDNA) DNA 1: ACCGCTCCTTACGTGGTTAACATCACCGCTCCTTACGTGGTTAACATC DNA 2: GATGTTAACCACGTAAGGAGCGGTGATGTTAACCACGTAAGGAGCGGT | binds
3 | g5641 (FAE) promoter probe (dsDNA) DNA 1: TGGATTGATGGACGTGGAAGCAGCTGGATTGATGGACGTGGAAGCAGC DNA 2: GCTGCTTCCACGTCCATCAATCCAGCTGCTTCCACGTCCATCAATCCA | binds
4 | g9477 (actin) control probe (dsDNA) DNA 1: TTCGATAAATGGGGCCGATAAGTGAGGGAAGATGATTTGAGTAAAGTA DNA 2: TACTTTACTCAAATCATCTTCCCTCACTTATCGGCCCCATTTATCGAA | no binding

molecular target: T1, MBP-NobZIP77; assay: EMSA; shift reduced by 100-fold unlabeled promoter DNA; LightShift Chemiluminescent EMSA kit binding buffer (composition, salt and pH not stated), 30 min; light series: 5 nM probe, 25 °C, 60 min, NobZIP77 1:2 dilutions from 24 mM (so in the source); 6% native PAGE at 4 °C; conditions: protein: recombinant; tags: MBP (pMAL-p4X); chain copies: 2; label: 5' biotin; blunt

Row | Binder | binding result
5 | g10411 (lipase; also written g10041) promoter probe (dsDNA) DNA 1: TCCAACACGTCGGCCTCCCAAACGCAATTTTGAGGCATGGACGTGGAAAGGG DNA 2: CCCTTTCCACGTCCATGCCTCAAAATTGCGTTTGGGAGGCCGACGTGTTGGA | binds
6 | g3857 (TAG-lipase) promoter probe (dsDNA) DNA 1: TGGGCTCGGACGCGACGCGGGCTTTGGGCTCGGACGCGACGCGGGCTT DNA 2: AAGCCCGCGTCGCGTCCGAGCCCAAAGCCCGCGTCGCGTCCGAGCCCA | binds

From PMC8964759, “Exploring a blue-light-sensing transcription factor to double the peak productivity of oil in Nannochloropsis oceanica”
